These results are taken from patent US20240423923A1, “EXTRACELLULAR VESICLES FROM MICROALGAE, THEIR BIODISTRIBUTION UPON ADMINISTRATION, AND USES” (AGS THERAPEUTICS SAS, priority 2022, published 2024).

For assay [1], the target named is Flagellin Sensing 2 receptor (FLS2) (Arabidopsis thaliana) (UniProt Q9FL28). Description: cell-based or functional assay.
For assay [2] the following is noted: medial prefrontal cortex, anterior cingulate cortex, central nucleus of amygdala; cited from earlier work.

Sequence of flg22 peptide (22 amino acid synthetic peptide that mimics the conserved N-terminal region of bacterial flagellin) (P21184 30-51): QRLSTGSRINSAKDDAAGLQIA
Sequence of UniProt Q9FL28 (Q9FL28 24-1173): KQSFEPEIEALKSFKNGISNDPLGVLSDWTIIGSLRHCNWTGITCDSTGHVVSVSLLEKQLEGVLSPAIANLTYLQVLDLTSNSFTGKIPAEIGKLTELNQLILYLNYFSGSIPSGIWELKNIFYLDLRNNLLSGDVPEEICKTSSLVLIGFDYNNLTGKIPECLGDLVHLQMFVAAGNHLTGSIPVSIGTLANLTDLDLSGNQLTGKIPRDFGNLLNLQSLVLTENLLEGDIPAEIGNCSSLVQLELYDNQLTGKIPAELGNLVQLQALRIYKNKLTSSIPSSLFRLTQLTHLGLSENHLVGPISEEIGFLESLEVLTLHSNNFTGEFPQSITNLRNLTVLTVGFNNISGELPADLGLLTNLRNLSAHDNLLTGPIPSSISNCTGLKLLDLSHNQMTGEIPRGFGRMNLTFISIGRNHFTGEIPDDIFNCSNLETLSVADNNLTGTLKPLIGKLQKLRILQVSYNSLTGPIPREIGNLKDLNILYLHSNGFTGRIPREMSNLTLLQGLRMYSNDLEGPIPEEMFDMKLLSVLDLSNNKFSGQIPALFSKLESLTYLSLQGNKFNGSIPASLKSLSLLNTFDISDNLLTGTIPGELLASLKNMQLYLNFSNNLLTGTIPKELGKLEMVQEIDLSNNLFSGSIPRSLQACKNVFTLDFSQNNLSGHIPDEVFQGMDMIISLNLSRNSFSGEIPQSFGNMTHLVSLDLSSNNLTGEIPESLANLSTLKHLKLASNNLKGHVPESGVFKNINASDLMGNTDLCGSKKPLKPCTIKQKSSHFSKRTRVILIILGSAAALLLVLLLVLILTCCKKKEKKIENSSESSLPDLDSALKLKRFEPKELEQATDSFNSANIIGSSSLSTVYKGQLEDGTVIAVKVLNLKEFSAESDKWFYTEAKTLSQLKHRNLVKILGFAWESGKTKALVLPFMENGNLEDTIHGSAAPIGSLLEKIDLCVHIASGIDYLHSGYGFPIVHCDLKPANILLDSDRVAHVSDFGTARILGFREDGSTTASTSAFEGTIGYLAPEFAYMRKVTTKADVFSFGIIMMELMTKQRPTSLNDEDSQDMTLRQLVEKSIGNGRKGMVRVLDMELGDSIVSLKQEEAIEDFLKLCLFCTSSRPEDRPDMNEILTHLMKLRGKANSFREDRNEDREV

In the case of “flg22 peptide (22 amino acid synthetic peptide that mimics the conserved N-terminal region of bacterial flagellin)”, the stomatal closure assay; effect of flg22-loaded EVs compared with free flg22 peptide in assay [1] was more than 10 nM.

On to `CCN(CC)C(=O)[C@@H]1C=C2c3cccc4[nH]cc(c34)C[C@H]2N(C)C1` [LSD, Lysergic acid diethylamide], for which the “increase in Fos-like immunoreactivity” value in assay [2] is recorded as “a five- to eight-fold increase”.
